Reference: the supplement of paper PMC10567573

B1: HSP90AB1 (parent)
chain: QVANSAFVERVRKRGFEVVYMTEP

Variants of: B1
Experiment: protein stability index of a GFP-peptide fusion (GPS, HEK-293T) (PSI 1-6); higher = more stable
Conditions: c terminus: a fixed tail appended
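Also: lentivirally expressed fusions sorted by FACS into six bins by GFP to DsRed ratio, PSI derived from sequencing read proportions per bin multiplied by bin number.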

Row | Variant | protein stability index
1 | QVANSAFVERVRKRGFEVVIMTEP [Y20I] | 1.78
2 | QVANSAFVERVRKRGFEVVKMTEP [Y20K] | 2.6
3 | QVANSAFVERVRKRGFEVVEMTEP [Y20E] | 3.37
4 | QVANSAFVERVRKRGFEVVGMTEP [Y20G] | 3.52
5 | QVANSAFVERVRKRGFEVVNMTEP [Y20N] | 3.62
6 | QVANSAFVERVRKRGFEVVAMTEP [Y20A] | 2.62
7 | QVANSAFVERVRKRGFEVVRMTEP [Y20R] | 3.23
8 | QVANSAFVERVRKRGFEVVVMTEP [Y20V] | 3.05
9 | QVANSAFVERVRKRGFEVVWMTEP [Y20W] | 1.96
10 | QVANFAFVERVRKRGFEVVYMTEP [S5F] | 1.76
11 | QVANHAFVERVRKRGFEVVYMTEP [S5H] | 2.29
12 | QVANVAFVERVRKRGFEVVYMTEP [S5V] | 2.22
13 | QVANYAFVERVRKRGFEVVYMTEP [S5Y] | 2.17
14 | QVANPAFVERVRKRGFEVVYMTEP [S5P] | 2.44
15 | QVANMAFVERVRKRGFEVVYMTEP [S5M] | 2.2
16 | QVANWAFVERVRKRGFEVVYMTEP [S5W] | 1.97
17 | QVANAAFVERVRKRGFEVVYMTEP [S5A] | 2.24
18 | QVANKAFVERVRKRGFEVVYMTEP [S5K] | 1.71
19 | QVANSAFVERVRQRGFEVVYMTEP [K13Q] | 2.2
20 | QVANSAFVERVRVRGFEVVYMTEP [K13V] | 1.54
21 | QVANSAFVERVRCRGFEVVYMTEP [K13C] | 1.61
22 | QVANSAFVERVRNRGFEVVYMTEP [K13N] | 2.24
23 | QVANSAFVERVRWRGFEVVYMTEP [K13W] | 2.48
24 | QVANSAFVERVRYRGFEVVYMTEP [K13Y] | 1.75

Row | Variant | protein stability index
25 | QVANSAFVERVRLRGFEVVYMTEP [K13L] | 2.49
26 | QVHNSAFVERVRKRGFEVVYMTEP [A3H] | 2.38
27 | QVSNSAFVERVRKRGFEVVYMTEP [A3S] | 2.74
28 | QVINSAFVERVRKRGFEVVYMTEP [A3I] | 2.06
29 | QVKNSAFVERVRKRGFEVVYMTEP [A3K] | 2.81
30 | QVQNSAFVERVRKRGFEVVYMTEP [A3Q] | 2.46
31 | QVFNSAFVERVRKRGFEVVYMTEP [A3F] | 1.87
32 | QVANSAFVEFVRKRGFEVVYMTEP [R10F] | 1.29
33 | QVANSAFVEEVRKRGFEVVYMTEP [R10E] | 2.28
34 | QVANSAFVEPVRKRGFEVVYMTEP [R10P] | 2.57
35 | QVANSAFVENVRKRGFEVVYMTEP [R10N] | 2.99
36 | QVANSAFVEVVRKRGFEVVYMTEP [R10V] | 1.76
37 | QVANSAFVERVRKRGFEVVYMTPP [E23P] | 2.19
38 | QVANSAFVERVRKRGFEVVYMTIP [E23I] | 1.69
39 | QVANSAFVERVRKRGFEVVYMTKP [E23K] | 2.13
40 | QVANSAFVERVRKRGFEVVYMTCP [E23C] | 2.67
41 | QVANSAFVERVRKRGFEVVYMTGP [E23G] | 1.78
42 | QVANSAFVERVRKRGFEVVYMTDP [E23D] | 2.81
43 | QVANSAFVERVRKRGFEVVYMTMP [E23M] | 2.56
44 | QVANSAFVERVRKRGFEVVYMTTP [E23T] | 1.89
45 | QVANSAFVERVRKRGSEVVYMTEP [F16S] | 3.64
46 | QVANSAFVERVRKRGMEVVYMTEP [F16M] | 2.73
47 | QVANSAFVERVRKRGWEVVYMTEP [F16W] | 2.04
48 | QVANSAFVERVRKRGDEVVYMTEP [F16D] | 4.16

Row | Variant | protein stability index
49 | QVANSAFVERVRKRGYEVVYMTEP [F16Y] | 2.11
50 | QVANSAFVERVRKRGKEVVYMTEP [F16K] | 3.2
51 | QVANSAFVERVRKRGREVVYMTEP [F16R] | 2.98
52 | QVANSAFVERVRKRGQEVVYMTEP [F16Q] | 4.2
53 | QIANSAFVERVRKRGFEVVYMTEP [V2I] | 2.52
54 | QHANSAFVERVRKRGFEVVYMTEP [V2H] | 2.49
55 | QFANSAFVERVRKRGFEVVYMTEP [V2F] | 2.47
56 | QYANSAFVERVRKRGFEVVYMTEP [V2Y] | 2.3
57 | QLANSAFVERVRKRGFEVVYMTEP [V2L] | 2.01
58 | QCANSAFVERVRKRGFEVVYMTEP [V2C] | 1.74
59 | QDANSAFVERVRKRGFEVVYMTEP [V2D] | 3.15
60 | QVANSAFVERVRKRGFEVFYMTEP [V19F] | 1.53
61 | QVANSAFVERVRKRGFEVKYMTEP [V19K] | 2.69
62 | QVANSAFVERVRKRGFEVSYMTEP [V19S] | 2.68
63 | QVANSAFVERVRKRGFEVWYMTEP [V19W] | 1.42
64 | QVANSAFVERVRKRGFEVNYMTEP [V19N] | 3.15
65 | QVANSAFVERVRKRGFEVGYMTEP [V19G] | 2.75
66 | QVANSAFVERVRKRGFEVIYMTEP [V19I] | 2.15
67 | QVANSAFVERVRKRGFEVYYMTEP [V19Y] | 1.98
68 | YVANSAFVERVRKRGFEVVYMTEP [Q1Y] | 3.79
69 | IVANSAFVERVRKRGFEVVYMTEP [Q1I] | 1.7
70 | HVANSAFVERVRKRGFEVVYMTEP [Q1H] | 1.85
71 | KVANSAFVERVRKRGFEVVYMTEP [Q1K] | 2.17
72 | MVANSAFVERVRKRGFEVVYMTEP [Q1M] | 1.81

Row | Variant | protein stability index
73 | SVANSAFVERVRKRGFEVVYMTEP [Q1S] | 2.12
74 | WVANSAFVERVRKRGFEVVYMTEP [Q1W] | 1.46
75 | TVANSAFVERVRKRGFEVVYMTEP [Q1T] | 1.95
76 | QVANSAFVERVRKGGFEVVYMTEP [R14G] | 2.09
77 | QVANSAFVERVRKWGFEVVYMTEP [R14W] | 2.16
78 | QVANSAFVERVRKDGFEVVYMTEP [R14D] | 3.23
79 | QVANSAFVERVRKVGFEVVYMTEP [R14V] | 1.65
80 | QVANSAFVERVRKPGFEVVYMTEP [R14P] | 2.51
81 | QVANSAFVERVRKEGFEVVYMTEP [R14E] | 2.75
82 | QVANSAFVERVRKLGFEVVYMTEP [R14L] | 2.03
83 | QVANSAFVERVRKHGFEVVYMTEP [R14H] | 1.98
84 | QVANSAFVERVRKKGFEVVYMTEP [R14K] | 2.54
85 | QVANSAFVERVRKSGFEVVYMTEP [R14S] | 2.26
86 | QVANSAFVERVRKIGFEVVYMTEP [R14I] | 2.56
87 | QVALSAFVERVRKRGFEVVYMTEP [N4L] | 1.69
88 | QVAISAFVERVRKRGFEVVYMTEP [N4I] | 2.64
89 | QVARSAFVERVRKRGFEVVYMTEP [N4R] | 2.18
90 | QVAPSAFVERVRKRGFEVVYMTEP [N4P] | 2.03
91 | QVAYSAFVERVRKRGFEVVYMTEP [N4Y] | 1.72
92 | QVAQSAFVERVRKRGFEVVYMTEP [N4Q] | 2.72
93 | QVAHSAFVERVRKRGFEVVYMTEP [N4H] | 2.6
94 | QVANSAFVERVRKRGFEVVYNTEP [M21N] | 2.77
